Data set [1] concerns the target T1, human gasdermin D (GSDMD), full length (human, UniProt P57764 1-484, chemically biotinylated (sites not given) in the SPR experiments).
T1 construct: Used in SPR (biotinylated), nanoDSF and the liposome assay; the same entry is used for endogenous GSDMD of THP-1 cells; also called wild type, human GSDMD; GSDMD 1-484
T1 sequence: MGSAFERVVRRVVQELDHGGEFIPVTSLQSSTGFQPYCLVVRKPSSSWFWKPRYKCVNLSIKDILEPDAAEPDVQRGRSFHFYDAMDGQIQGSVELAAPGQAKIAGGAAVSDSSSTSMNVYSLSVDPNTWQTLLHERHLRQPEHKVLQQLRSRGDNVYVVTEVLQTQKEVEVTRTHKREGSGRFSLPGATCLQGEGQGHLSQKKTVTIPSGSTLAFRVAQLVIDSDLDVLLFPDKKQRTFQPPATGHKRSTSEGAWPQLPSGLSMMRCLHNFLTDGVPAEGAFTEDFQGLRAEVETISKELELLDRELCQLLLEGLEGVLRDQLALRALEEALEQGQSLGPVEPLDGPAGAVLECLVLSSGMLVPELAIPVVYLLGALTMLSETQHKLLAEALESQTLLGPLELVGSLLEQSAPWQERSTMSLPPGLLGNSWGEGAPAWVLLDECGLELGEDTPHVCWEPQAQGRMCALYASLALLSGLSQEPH
In words: SPR (Biacore 8K), biotinylated GSDMD immobilized, nanobody as analyte, multi-cycle kinetics, 1:1 model. On the technique in general: Surface plasmon resonance follows binding to a sensor surface in real time, without labels.

Data set [2] addresses T1, human gasdermin D (GSDMD), full length. Nature of the data set: nanoDSF thermal shift, equimolar GSDMD and nanobody. (In DSF a fluorescence change marks the thermal transition of the protein.)
Experimental: (§1) One representative out of three experiments is shown. d, Unfolding temperatures of GSDMD, the nanobodies and GSDMD-nanobody complexes were determined using nanoDSF. The unfolding temperatures of GSDMD at 5 μM and the GSDMD nanobody complexes after addition of 5 μM nanobody are shown. N=x, data represented with SD. e, Unfolding temperatures of GSDMD and GSDMD-nanobody complexes.
(§2) The thermal stability of the nanobodies and their impact on the thermostability of GSDMD was further analyzed using a thermal shift assay by nano-differential scanning fluorimetry (FIG. 11D, E and FIG. 18).
The target is the same in data set [3]. Nature of the data set: nanoDSF titration, 5 µM GSDMD + 5 µM VHH; SD 0.8; GSDMD 5 µM alone 50.2 °C, VHH-5 50 µM alone 58.5 °C.
Experimental: (§3) The melting temperatures of GSDMD and the nanobodies alone were determined at concentrations of 5 and 50 μM, respectively.
The target is the same in data set [4]. Nature of the data set: nanoDSF thermal shift, 5 µM GSDMD + 5 µM VHH; SD 0.8 °C; GSDMD alone 50.2 °C (SD 0.3).
Experimental: as §1, §2
The target in data set [5] is T2, GSDMD^CT (human, UniProt P57764).
T2 construct: domain fused to Renilla luciferase; LUMIER bait; also called GSDMD^CT-Renilla luciferase fusion
T2 sequence (single chain, looked up): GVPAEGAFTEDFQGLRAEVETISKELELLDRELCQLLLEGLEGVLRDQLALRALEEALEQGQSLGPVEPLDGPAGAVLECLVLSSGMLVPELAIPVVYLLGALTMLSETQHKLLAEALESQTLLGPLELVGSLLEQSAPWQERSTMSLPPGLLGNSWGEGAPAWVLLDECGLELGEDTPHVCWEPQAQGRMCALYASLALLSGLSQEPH
In words: LUMIER co-IP in HEK293T, HA-tagged VHH with Renilla luciferase fusion.

In data set [6] the target is T1, human gasdermin D (GSDMD), full length. In words: nanoDSF titration, 5 µM GSDMD + 5 µM VHH; SD 1.0; GSDMD 5 µM alone 50.2 °C, VHH-2 50 µM alone 58.0 °C.
Experimental: as §3
For data set [7] the target is unchanged. In words: nanoDSF thermal shift, 5 µM GSDMD + 5 µM VHH; SD 1.0 °C; GSDMD alone 50.2 °C (SD 0.3).
Experimental: as §1, §2
The target of data set [8] is T3, murine GsdmD (murine, UniProt Q9D8T2 1-487).
T3 construct: not shown: Renilla luciferase
T3 sequence (looked up): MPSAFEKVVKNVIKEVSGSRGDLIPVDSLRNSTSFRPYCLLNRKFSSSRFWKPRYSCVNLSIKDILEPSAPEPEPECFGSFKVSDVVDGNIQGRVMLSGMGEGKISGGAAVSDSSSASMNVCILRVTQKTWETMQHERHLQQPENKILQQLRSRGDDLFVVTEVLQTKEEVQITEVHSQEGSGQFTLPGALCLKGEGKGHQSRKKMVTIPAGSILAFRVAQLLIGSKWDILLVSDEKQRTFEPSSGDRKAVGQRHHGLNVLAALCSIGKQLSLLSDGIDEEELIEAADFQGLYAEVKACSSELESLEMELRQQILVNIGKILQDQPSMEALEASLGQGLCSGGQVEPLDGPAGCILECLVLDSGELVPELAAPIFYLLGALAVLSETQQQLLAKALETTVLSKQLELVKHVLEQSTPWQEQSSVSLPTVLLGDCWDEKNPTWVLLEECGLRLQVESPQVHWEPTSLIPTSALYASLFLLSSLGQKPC
Nature of the data set: LUMIER co-IP in HEK293T, HA-tagged VHH with Renilla luciferase fusion.

Data set [9] deals with T1, human gasdermin D (GSDMD), full length. In words: nanoDSF titration, 5 µM GSDMD + 5 µM VHH; SD 1.0; GSDMD 5 µM alone 50.2 °C, VHH-1 50 µM alone 67.6 °C.
Experimental: as §3
Data set [10] shares this target. Nature of the data set: nanoDSF thermal shift, 5 µM GSDMD + 5 µM VHH; SD 1.3 °C; GSDMD alone 50.2 °C (SD 0.3).
Experimental: as §1, §2
Data set [11] shares this target. In words: nanoDSF titration, 5 µM GSDMD + 5 µM VHH; SD 1.3; GSDMD 5 µM alone 50.2 °C, VHH-3 50 µM alone 59.1 °C.
Experimental: as §3
Data set [12] has the same target. In words: nanoDSF thermal shift, 5 µM GSDMD + 5 µM VHH; SD 0.5 °C; GSDMD alone 50.2 °C (SD 0.3).
Experimental: as §1, §2
Data set [13] has the same target. Nature of the data set: SPR (Biacore 8K), chemically biotinylated GSDMD immobilised, VHH as analyte, multi-cycle kinetics, 1:1 fit.
Experimental: Chemically biotinylated GSDMD was immobilized on a sensor chip and nanobodies were injected as analytes at the indicated concentrations for 120 s, followed by dissociation for 300 s. Dissociation constants (KDs) were determined from the association and dissociation fits by applying a 1:1 binding model. d, Epitope binning assay.
Surface plasmon resonance experiments were performed using a Biacore 8K instrument (GE Healthcare). The flow system was cleaned using the maintenance “Desorb” function (Desorb Kit, GE Healthcare). The system was flushed with running buffer (20 mM HEPES (pH 8.0), 200 mM NaCl, 5 mM DTT, 0.05% Tween20) and all steps were performed at 25° C. chip temperature. Chemically biotinylated GSDMD at a concentration of 100 nM was immobilized for 180 s on the flow cell 2 of a Series S Sensor Chip CAP using a biotin capture kit and a flow rate of 30 μl/min. The system was washed for 600 s with running buffer with a flow rate of 30 μl/min. Binding affinities were determined using multi-cycle kinetics. […] The association step was carried out for 120 s and the dissociation step for 300 s.
Data set [14] shares this target. Nature of the data set: nanoDSF titration, 5 µM GSDMD + 5 µM VHH; SD 0.5; GSDMD 5 µM alone 50.2 °C, VHH-6 50 µM alone 42.6 and 53.5 °C.
Experimental: as §3

Where only a bound is given, the exact number is not on record here.

B1: VHHGSDMD-5 (VHH)
VHH: QVQLVETGGGLVQPGGSLRLSCAASGFVFSINPMNWYRQAPGKERELVAYISMRGSTTNYADSVKGRFIISRDNAKNTLYLQMNSLKPEDTAVYYCNAPSRSVWGQGTQVTVSS
notes: Alpaca single-domain antibody; also called VHH AK-G04; VHH-5; not shown: C-terminal HA-His tag (recombinant protein: SPR, nanoDSF, liposome assay, ELISA) or HA tag (LUMIER)
B1: in data set [1], the Kd amounted to 4.14 nM. Moreover, in data set [2], the “decrease of the melting temperature of GSDMD” value was no more than 2.5 °C. Besides, the “Tm of GSDMD with the VHH” value in [3] and in data set [4] was 48.8 °C in each case. In addition, in data set [5], the binding result is on record as “no binding”.

B2: VHHGSDMD-2 (VHH)
VHH: QVQLVESGGGLVQPGGSLRLSCVDSRSWINVYGANWYRQAPGKERELVAALTSGGTTNYADSVKGRFTISRDNAKNTVYLQMRDLKPEDTAVYYCNLERYTGSSVYPWGQGTQVTVSS
notes: Alpaca single-domain antibody; The crystal model holds VHH-2 residues 1-118; One entry is used for all tag variants; also called VHH AK-C03; VHH-2; not shown: C-terminal tag that differs by assay: LPETG-His (recombinant protein: SPR, nanoDSF, liposome assay, crystal), HA-His6 (E)
With B2, the “Tm of GSDMD with the VHH” value in data set [6] and in data set [7] was 56 °C in each case. The molecule also gave a Kd in data set [1] of 8.24 nM. Moreover, the “increase of the thermal stability of GSDMD” value (“increase” below) in [2] was no more than 9.4 °C. In addition, the binding result in [8] and in data set [5] was “no binding” throughout.

B3: VHHGSDMD-1 (VHH)
VHH: QVQLVESGGALVQPGGSLRLSCSASGFTFSKYLMSWYRQAPGKERELVATITTAGGNTNYADSVKGRFTISRDNAKNTVYLQMNSLKPEDTAVYYCKASGGTIRTVNETYWGQGTQVTVSS
notes: Alpaca single-domain antibody; One entry is used for all tag variants; also called VHH AK-A04; VHH-1; not shown: C-terminal tag that differs by assay: LPETG-His (recombinant protein: SPR, nanoDSF, liposome assay), HA-His6 (ELISA), HA
As to B3, the “Tm of GSDMD with the VHH” value in data set [9] and in data set [7] was 59.6 °C throughout. Further, in data set [1], binding was characterised by a dissociation constant (Kd) of 0.55 nM. For the same molecule, the “increase” value in data set [2] was no more than 9.4 °C. Moreover, the binding result in [8] and in data set [5] was “no binding” each time.

B4: VHHGSDMD-3 (VHH)
VHH: QVQLVETGGGLVQPGGSLRLSCAASGFTLDIYNMGWFRQAPGKEREGVSCISSRYGTSTYYADSVKGRFTISRDNAKNTVYLQMNNLKPEDTAVYYCATVSWRFTTNQDVCLTPSVSGYWGQGTQVTVSS
notes: Alpaca single-domain antibody; One entry is used for all tag variants; also called VHH AK-H12; VHH-3; not shown: C-terminal tag that differs by assay: LPETG-His (recombinant protein: SPR, nanoDSF, liposome assay), HA-His6 (ELISA), HA
With B4, the “Tm of GSDMD with the VHH” value in data set [10] and in data set [11] was 54.1 °C each time. The same molecule came in with a Kd in data set [1] of 2.19 nM. The “increase” value in data set [2] was no more than 9.4 °C. In addition, the binding result in data set [5] was “no binding”.

B5: VHHGSDMD-6 (VHH)
VHH: QVQLVETGGGLVQPGGSLRLSCTASGFIFSANQMNWVRQAPGKGLEWLSGISTRGDTTSYADSVKGRFTISRDNAKNTLYLQMNSLQPDDTAVYFCARVCIRGPEPKLRCDDWGQGTQVTVSS
notes: Alpaca single-domain antibody; The crystal model holds VHH-6 residues 1-123; also called VHH AK-G08; VHH-6; not shown: C-terminal HA-His tag (recombinant protein: SPR, nanoDSF, liposome assay, crystal, ELISA)
Consider B5, for which, in data set [2], the “increase” value is 4.2 °C. Besides, the “Tm of GSDMD with the VHH” value in [12] and in data set [14] was 54.4 °C each time. The same molecule gave a Kd in data set [13] of 280 nM.

B6: VHH-4 (VHH)
VHH: QVQLVESGGGLVQPGGSLRLSCAASGFTLDRHAIAWFRQAPGLEREGVVCTSSSGAITNTADSVKGRFTISRDDAKNTVYLQMNSLKPEDTAIYYCAVRELWTVQPICEPRPRAYAYWGQGTQVTVSS
notes: Alpaca single-domain antibody; also called VHH AK-C10; GSDMD4; not shown: C-terminal HA-His tag (recombinant protein: SPR, nanoDSF, liposome assay, ELISA)
On to B6, for which the binding result in [5] is reported as “no binding”.

Usually Kd stands for the concentration at which binding is half-saturated. A lower Kd goes with tighter binding.

Values taken from US20260209323A1 (WHITEHEAD INSTITUTE FOR BIOMEDICAL RE SEARCH, published 2026).
